According to patent publication US20240010722A1:
Several values for one entry are separate records, joined by “and”; a condition that tells them apart may be missing. Identical values can stand only once.

Each binder was assayed against Insulin (assay: polyreactivity ELISA on insulin coat, 100 nM).
Sequence of Insulin (P01308 25-54, chain 1 of 2): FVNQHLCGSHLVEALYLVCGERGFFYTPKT
Sequence of Insulin (P01308 90-110, chain 2 of 2): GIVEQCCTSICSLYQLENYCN

| Binder | Insulin polyreactivity score |
| --- | --- |
| MIAB198 (antibody, V domains shown) VH: EVQLLESGGGLVQPGGSLRLSCAASGFTFSDFWMHWVRQAPGKGLEWISYISGDSGYTNYADSVKGRFTISRDNSKNTLYLQMNSLRAEDTAVYYCARDRPYYYIMDVWGKGTTVTVSS VL: DIQMTQSPSSLSASVGDRVTITCRASQSVSRSLAWYQQKPGKAPKLLIYAASSLQSGVPSRFSGSGSGTDFTLTISSLQPEDFATYYCQQYKSYPVTFGQGTKVEIK | 3.19 and 3.63 |
| MIAB150 (antibody, V domains shown) VH: EVQLLESGGGLVQPGGSLRLSCAASGFTFSDFWMHWVRQAPGKGLEWISYISGDSGYTNYADSVKGRFTISRDNSKNTLYLQMNSLRAEDTAVYYCARDRPYYYYMDVWGKGTTVTVSS VL: DIQMTQSPSSLSASVGDRVTITCRASQSISRYLAWYQQKPGKAPKLLIYAASSLQSGVPSRFSGSGSGTDFTLTISSLQPEDFATYYCQQYKSYPVTFGQGTKVEIK | 3.74 |
| MIAB159 (antibody, V domains shown) VH: EVQLLESGGGLVQPGGSLRLSCAASGFTFSDFWMHWVRQAPGKGLEWISYISGESGYTNYADSVKGRFTISRDNSKNTLYLQMNSLRAEDTAVYYCARDRPYYYYMDVWGKGTTVTVSS VL: DIQMTQSPSSLSASVGDRVTITCRASQSVSRSLAWYQQKPGKAPKLLIYAASSLQSGVPSRFSGSGSGTDFTLTISSLQPEDFATYYCQQYKSYPVTFGQGTKVEIK | 4.66 |
| MIAB167 (antibody, V domains shown) VH: EVQLLESGGGLVQPGGSLRLSCAASGFTFSDFWMHWVRQAPGKGLEWISYISGDSGYTNYADSVKGRFTISRDNSKNTLYLQMNSLRAEDTAVYYCARDRPYYYYMDVWGKGTTVTVSS VL: DIQMTQSPSSLSASVGDRVTITCRASQSVSRSLKWYQQKPGKAPKLLIYAASSLQSGVPSRFSGSGSGTDFTLTISSLQPEDFATYYCQQYKSYPVTFGQGTKVEIK | 29.6 |
| MIAB166 (antibody, V domains shown) VH: EVQLLESGGGLVQPGGSLRLSCAASGFTFSDFWMHWVRQAPGKGLEWISYISGDSGYTNYADSVKGRFTISRDNSKNTLYLQMNSLRAEDTAVYYCARDRPYYYYMDVWGKGTTVTVSS VL: DIQMTQSPSSLSASVGDRVTITCRASQSVSRSLEWYQQKPGKAPKLLIYAASSLQSGVPSRFSGSGSGTDFTLTISSLQPEDFATYYCQQYKSYPVTFGQGTKVEIK | 7.89 |
| MIAB129 (antibody, V domains shown) VH: EVQLLESGGGLVQPGGSLRLSCAASGFTFSDFWMHWVRQAPGKGLEWISYISGDSGYTNYADSVKGRFTISRDNSKNTLYLQMNSLRAEDTAVYYCARDRPGYYYMDVWGKGTTVTVSS VL: DIQMTQSPSSLSASVGDRVTITCRASQSVSRSLAWYQQKPGKAPKLLIYAASSLQSGVPSRFSGSGSGTDFTLTISSLQPEDFATYYCQQYKSYPVTFGQGTKVEIK | 2.43 |
| MIAB157 (antibody, V domains shown) VH: EVQLLESGGGLVQPGGSLRLSCAASGFTFSDFWMHWVRQAPGKGLEWISYISGDSGYTNYADSVKGRFTISRDNSKNTLYLQMNSLRAEDTAVYYCARDRPYYYYMDVWGKGTTVTVSS VL: DIQMTQSPSSLSASVGDRVTITCRASQSISSYLAWYQQKPGKAPKLLIYAASSLQSGVPSRFSGSGSGTDFTLTISSLQPEDFATYYCQQYKSYPVTFGQGTKVEIK | 3.99 |
| MIAB161 (antibody, V domains shown) VH: EVQLLESGGGLVQPGGSLRLSCAASGFTFSDFWMHWVRQAPGKGLEWISYISGDSGYTNYADSVKGRFTISRDQSKNTLYLQMNSLRAEDTAVYYCARDRPYYYYMDVWGKGTTVTVSS VL: DIQMTQSPSSLSASVGDRVTITCRASQSVSRSLAWYQQKPGKAPKLLIYAASSLQSGVPSRFSGSGSGTDFTLTISSLQPEDFATYYCQQYKSYPVTFGQGTKVEIK | 5 |
| MIAB158 (antibody, V domains shown) VH: EVQLLESGGGLVQPGGSLRLSCAASGFTFSDFWMHWVRQAPGKGLEWISYISGDSGYTNYADSVKGRFTISRDNSKNTLYLQMNSLRAEDTAVYYCARDRPYYYYMDVWGKGTTVTVSS VL: DIQMTQSPSSLSASVGDRVTITCRASQSVSSYLNWYQQKPGKAPKLLIYAASSLQSGVPSRFSGSGSGTDFTLTISSLQPEDFATYYCQQYKSYPVTFGQGTKVEIK | 2.67 |
| MIAB164 (antibody, V domains shown) VH: EVQLLESGGGLVQPGGSLRLSCAASGFTFSDFWMHWVRQAPGKGLEWISYISGDSGYTNYADSVKGRFTISRDNSKNTLYLQMNSLRAEDTAVYYCARDRPYYYYMDVWGKGTTVTVSS VL: DIQMTQSPSSLSASVGDRVTITCRASQSVSRSLTWYQQKPGKAPKLLIYAASSLQSGVPSRFSGSGSGTDFTLTISSLQPEDFATYYCQQYKSYPVTFGQGTKVEIK | 7.07 |
| MIAB163 (antibody, V domains shown) VH: EVQLLESGGGLVQPGGSLRLSCAASGFTFSDFWMHWVRQAPGKGLEWISYISGDSGYTNYADSVKGRFTISRDNSKNTLYLQMNSLRAEDTAVYYCARDRPYYYYMDVWGKGTTVTVSS VL: DIQMTQSPSSLSASVGDRVTITCRASQSVSRSLDWYQQKPGKAPKLLIYAASSLQSGVPSRFSGSGSGTDFTLTISSLQPEDFATYYCQQYKSYPVTFGQGTKVEIK | 18.5 |
| MIAB162 (antibody, V domains shown) VH: EVQLLESGGGLVQPGGSLRLSCAASGFTFSDFWMHWVRQAPGKGLEWISYISGDSGYTNYADSVKGRFTISRDNSKNTLYLQMNSLRAEDTAVYYCARDRPYYYYMDVWGKGTTVTVSS VL: DIQMTQSPSSLSASVGDRVTITCRASQSVSRSLGWYQQKPGKAPKLLIYAASSLQSGVPSRFSGSGSGTDFTLTISSLQPEDFATYYCQQYKSYPVTFGQGTKVEIK | 5.31 |
| MIAB155 (antibody, V domains shown) VH: EVQLLESGGGLVQPGGSLRLSCAASGFTFSDFWMHWVRQAPGKGLEWISYISGDSGYTNYADSVKGRFTISRDNSKNTLYLQMNSLRAEDTAVYYCARDRPYYYYMDVWGKGTTVTVSS VL: DIQMTQSPSSLSASVGDRVTITCRASQSISSSLNWYQQKPGKAPKLLIYAASSLQSGVPSRFSGSGSGTDFTLTISSLQPEDFATYYCQQYKSYPVTFGQGTKVEIK | 1.99 |
| MIAB130 (antibody, V domains shown) VH: EVQLLESGGGLVQPGGSLRLSCAASGFTFSDFWMHWVRQAPGKGLEWISYISGDSGYTNYADSVKGRFTISRDNSKNTLYLQMNSLRAEDTAVYYCARDRPYYYQMDVWGKGTTVTVSS VL: DIQMTQSPSSLSASVGDRVTITCRASQSVSRSLAWYQQKPGKAPKLLIYAASSLQSGVPSRFSGSGSGTDFTLTISSLQPEDFATYYCQQYKSYPVTFGQGTKVEIK | 3.26 |

Second part, the binder after the results:

| Insulin polyreactivity score | Binder |
| --- | --- |
| 61.9 | MIAB154 (antibody, V domains shown) VH: EVQLLESGGGLVQPGGSLRLSCAASGFTFSDFWMHWVRQAPGKGLEWISYISGDSGYTNYADSVKGRFTISRDNSKNTLYLQMNSLRAEDTAVYYCARDRPYYYYMDVWGKGTTVTVSS VL: DIQMTQSPSSLSASVGDRVTITCRASQSVSRYLNWYQQKPGKAPKLLIYAASSLQSGVPSRFSGSGSGTDFTLTISSLQPEDFATYYCQQYKSYPVTFGQGTKVEIK |
| 17.8 | MIAB160 (antibody, V domains shown) VH: EVQLLESGGGLVQPGGSLRLSCAASGFTFSDFWMHWVRQAPGKGLEWISYISGDSGYTQYADSVKGRFTISRDNSKNTLYLQMNSLRAEDTAVYYCARDRPYYYYMDVWGKGTTVTVSS VL: DIQMTQSPSSLSASVGDRVTITCRASQSVSRSLAWYQQKPGKAPKLLIYAASSLQSGVPSRFSGSGSGTDFTLTISSLQPEDFATYYCQQYKSYPVTFGQGTKVEIK |
| 45.2 | MIAB156 (antibody, V domains shown) VH: EVQLLESGGGLVQPGGSLRLSCAASGFTFSDFWMHWVRQAPGKGLEWISYISGDSGYTNYADSVKGRFTISRDNSKNTLYLQMNSLRAEDTAVYYCARDRPYYYYMDVWGKGTTVTVSS VL: DIQMTQSPSSLSASVGDRVTITCRASQSISRYLNWYQQKPGKAPKLLIYAASSLQSGVPSRFSGSGSGTDFTLTISSLQPEDFATYYCQQYKSYPVTFGQGTKVEIK |
| 2.83 | MIAB152 (antibody, V domains shown) VH: EVQLLESGGGLVQPGGSLRLSCAASGFTFSDFWMHWVRQAPGKGLEWISYISGDSGYTNYADSVKGRFTISRDNSKNTLYLQMNSLRAEDTAVYYCARDRPYYYYMDVWGKGTTVTVSS VL: DIQMTQSPSSLSASVGDRVTITCRASQSVSSYLAWYQQKPGKAPKLLIYAASSLQSGVPSRFSGSGSGTDFTLTISSLQPEDFATYYCQQYKSYPVTFGQGTKVEIK |
| 8 | MIAB131 (antibody, V domains shown) VH: EVQLLESGGGLVQPGGSLRLSCAASGFTFSDFWMHWVRQAPGKGLEWISYISGDSGYTNYADSVKGRFTISRDNSKNTLYLQMNSLRAEDTAVYYCARDRPYYYGMDVWGKGTTVTVSS VL: DIQMTQSPSSLSASVGDRVTITCRASQSVSRSLAWYQQKPGKAPKLLIYAASSLQSGVPSRFSGSGSGTDFTLTISSLQPEDFATYYCQQYKSYPVTFGQGTKVEIK |
| 2.62 | MIAB128 (antibody, V domains shown) VH: EVQLLESGGGLVQPGGSLRLSCAASGFTFSDFWMHWVRQAPGKGLEWISYISGDSGYTNYADSVKGRFTISRDNSKNTLYLQMNSLRAEDTAVYYCARDRPNYYYMDVWGKGTTVTVSS VL: DIQMTQSPSSLSASVGDRVTITCRASQSVSRSLAWYQQKPGKAPKLLIYAASSLQSGVPSRFSGSGSGTDFTLTISSLQPEDFATYYCQQYKSYPVTFGQGTKVEIK |
| 8.35 | MIAB168 (antibody, V domains shown) VH: EVQLLESGGGLVQPGGSLRLSCAASGFTFSDFWMHWVRQAPGKGLEWISYISGDSGYTNYADSVKGRFTISRDNSKNTLYLQMNSLRAEDTAVYYCARDRPYYYYMDVWGKGTTVTVSS VL: DIQMTQSPSSLSASVGDRVTITCRASQSVSRSLLWYQQKPGKAPKLLIYAASSLQSGVPSRFSGSGSGTDFTLTISSLQPEDFATYYCQQYKSYPVTFGQGTKVEIK |
| 9.53 | MIAB165 (antibody, V domains shown) VH: EVQLLESGGGLVQPGGSLRLSCAASGFTFSDFWMHWVRQAPGKGLEWISYISGDSGYTNYADSVKGRFTISRDNSKNTLYLQMNSLRAEDTAVYYCARDRPYYYYMDVWGKGTTVTVSS VL: DIQMTQSPSSLSASVGDRVTITCRASQSVSRSLSWYQQKPGKAPKLLIYAASSLQSGVPSRFSGSGSGTDFTLTISSLQPEDFATYYCQQYKSYPVTFGQGTKVEIK |
